The values that follow come from patent publication US20240059759A1.

Substitutions are numbered along the chain they refer to. Read-outs that look alike come from different tables or passages of the source.

Assay [1] concerns the target SARS-CoV-2 Spike RBD-His Tag, Sino Biological (SARS-CoV-2).
Assay [2] shares this target. This is another data set of the same source.
Assay [3] addresses CoV-2 (SARS-CoV-2).
Assay [4] addresses CoV-2 (SARS-CoV-2). The source holds these as a separate data set.
The target of assay [5] is CoV-2 (SARS-CoV-2). This is another data set of the same source.
The target of assay [6] is SARS-CoV-2 Spike RBD-His Tag, Sino Biological (SARS-CoV-2). The source holds these as a separate data set.
For assay [7] the target is unchanged. This is another data set of the same source.
The target in assay [8] is CoV-2 (SARS-CoV-2). This is another data set of the same source.
Assay [9] addresses CoV-2 (SARS-CoV-2). This is another data set of the same source.
Assay [10] addresses SARS-CoV-2 Spike RBD-His Tag, Sino Biological (SARS-CoV-2). This is another data set of the same source.
Assay [11] has the same target. This is another data set of the same source.
Assay [12] concerns the target CoV-2 (SARS-CoV-2). This is another data set of the same source.
Assay [13] deals with CoV-2 (SARS-CoV-2). This is another data set of the same source.
The target in assay [14] is CoV-2 (SARS-CoV-2). The source holds these as a separate data set.
Assay [15] deals with SARS-CoV-2 Spike RBD-His Tag, Sino Biological (SARS-CoV-2). The source holds these as a separate data set.
Assay [16] has the same target. The source holds these as a separate data set.

B1: vhh_tstrep_sars2_pjl1_L_74 (VHH)
VHH: QVQLQESGGGLVQAGGSLRLSCAASGRTFSEYAMGWFRQAPGKEREFVATISWSGGATYQTDSVKGRFTISRDNAKNTVYLQMNSLKPDDTAVYYCAAAGLGTVVSEWDYDYDYWGQGTQVTVSS
Regarding B1, the figures for the xmid (log10) in [1] and in assay [2] were -0.787 and -0.413, respectively.

B2: vhh_tstrep_sars2_pjl1_L_27 (VHH)
VHH: B1 VHH with A57S, Q60Y, G102A
Take B2: the xmid (log10) worked out at 0.178 with CoV-2 (SARS-CoV-2) [3], 0.407 in the assay with CoV-2 (SARS-CoV-2) [4] and 0.577 with CoV-2 (SARS-CoV-2) [5].

B3: vhh_tstrep_sars2_pjl1_L_144 (VHH)
VHH: B1 VHH with I51S, Q60H
As for B3, the xmid (log10) in assay [6] is -0.0515; in assay [7] it was 0.491.

B4: vhh_tstrep_sars2_pjl1_L_4 (VHH)
VHH: B1 VHH with A57S, Q60Y, A99G
Consider B4, for which the results for the xmid (log10) in the assay with CoV-2 (SARS-CoV-2) [8], in the assay with CoV-2 (SARS-CoV-2) [9] and in the assay with CoV-2 (SARS-CoV-2) [4] were -0.0058, 0.752 and 0.673, respectively.

B5: vhh_tstrep_sars2_pjl1_L_99 (VHH)
VHH: B1 VHH with Q60Y, D109A, Y114A
As for B5, the xmid (log10) in assay [10] was -0.202; in assay [11] it was -0.384.

B6: vhh_tstrep_sars2_pjl1_L_35 (VHH)
VHH: B1 VHH with A57S, Q60Y, A98G
For B6, the values for the xmid (log10) with CoV-2 (SARS-CoV-2) [12], with CoV-2 (SARS-CoV-2) [13] and in the assay with CoV-2 (SARS-CoV-2) [14] were 0.231, 0.355 and -0.501, respectively.

B7: vhh_tstrep_sars2_pjl1_L_47 (VHH)
VHH: B1 VHH with A57S, Q60Y, Y112A
Take B7: the xmid (log10) with CoV-2 (SARS-CoV-2) [9] is 1.45; in the assay with CoV-2 (SARS-CoV-2) [13], 0.716; with CoV-2 (SARS-CoV-2) [3], -0.708.

B8: vhh_tstrep_sars2_pjl1_L_79 (VHH)
VHH: B1 VHH with Q60T
B8: the figures for the xmid (log10) in assay [1] and in assay [2] were -1.02 and -1.01, respectively.

B9: vhh_tstrep_sars2_pjl1_L_150 (VHH)
VHH: B1 VHH with T58G, Q60H
For the molecule B9, the xmid (log10) in assay [15] came out at 0.171; in assay [6], 0.879.

B10: vhh_tstrep_sars2_pjl1_L_145 (VHH)
VHH: B1 VHH with W53L, Q60H
Regarding B10, the xmid (log10) in assay [15] is 0.668; in assay [16], 0.562.
